Source: patent publication US20180009871A1 (INTARCIA THERAPEUTICS, published 2018)
Where no end group is shown, it is not given here. [ ]: non-standard residue; d: D form. Aib = CC(C)(N)C(=O)O

B1: Compound A48 (peptide)
peptide: YSHGTFTSDYSKYLD[Aib]KRAQEFV[Aib]WLEDEKRNKNPPPS-OH
modifications: N-terminus assumed
SMILES: CC(C)C[C@H](NC(=O)[C@H](Cc1ccc(O)cc1)NC(=O)[C@H](CCCCN)NC(=O)[C@H](CO)NC(=O)[C@H](Cc1ccc(O)cc1)NC(=O)[C@H](CC(=O)O)NC(=O)[C@H](CO)NC(=O)[C@@H](NC(=O)[C@H](Cc1ccccc1)NC(=O)[C@@H](NC(=O)CNC(=O)[C@H](Cc1c[nH]cn1)NC(=O)[C@H](CO)NC(=O)[C@@H](N)Cc1ccc(O)cc1)[C@@H](C)O)[C@@H](C)O)C(=O)N[C@@H](CC(=O)O)C(=O)NC(C)(C)C(=O)N[C@@H](CCCCN)C(=O)N[C@@H](CCCNC(=N)N)C(=O)N[C@@H](C)C(=O)N[C@@H](CCC(N)=O)C(=O)N[C@@H](CCC(=O)O)C(=O)N[C@@H](Cc1ccccc1)C(=O)N[C@H](C(=O)NC(C)(C)C(=O)N[C@@H](Cc1c[nH]c2ccccc12)C(=O)N[C@@H](CC(C)C)C(=O)N[C@@H](CCC(=O)O)C(=O)N[C@@H](CC(=O)O)C(=O)N[C@@H](CCC(=O)O)C(=O)N[C@@H](CCCCN)C(=O)N[C@@H](CCCNC(=N)N)C(=O)N[C@@H](CC(N)=O)C(=O)N[C@@H](CCCCN)C(=O)N[C@@H](CC(N)=O)C(=O)N1CCC[C@H]1C(=O)N1CCC[C@H]1C(=O)N1CCC[C@H]1C(=O)N[C@@H](CO)C(=O)O)C(C)C
B2: Compound A49 (peptide)
peptide: YSHGTFTSDYSKYLD[Aib]KRAQEFV[Aib]WLEDEPRNKNNPPS-OH
modifications: N-terminus assumed
SMILES: CC(C)C[C@H](NC(=O)[C@H](Cc1ccc(O)cc1)NC(=O)[C@H](CCCCN)NC(=O)[C@H](CO)NC(=O)[C@H](Cc1ccc(O)cc1)NC(=O)[C@H](CC(=O)O)NC(=O)[C@H](CO)NC(=O)[C@@H](NC(=O)[C@H](Cc1ccccc1)NC(=O)[C@@H](NC(=O)CNC(=O)[C@H](Cc1c[nH]cn1)NC(=O)[C@H](CO)NC(=O)[C@@H](N)Cc1ccc(O)cc1)[C@@H](C)O)[C@@H](C)O)C(=O)N[C@@H](CC(=O)O)C(=O)NC(C)(C)C(=O)N[C@@H](CCCCN)C(=O)N[C@@H](CCCNC(=N)N)C(=O)N[C@@H](C)C(=O)N[C@@H](CCC(N)=O)C(=O)N[C@@H](CCC(=O)O)C(=O)N[C@@H](Cc1ccccc1)C(=O)N[C@H](C(=O)NC(C)(C)C(=O)N[C@@H](Cc1c[nH]c2ccccc12)C(=O)N[C@@H](CC(C)C)C(=O)N[C@@H](CCC(=O)O)C(=O)N[C@@H](CC(=O)O)C(=O)N[C@@H](CCC(=O)O)C(=O)N1CCC[C@H]1C(=O)N[C@@H](CCCNC(=N)N)C(=O)N[C@@H](CC(N)=O)C(=O)N[C@@H](CCCCN)C(=O)N[C@@H](CC(N)=O)C(=O)N[C@@H](CC(N)=O)C(=O)N1CCC[C@H]1C(=O)N1CCC[C@H]1C(=O)N[C@@H](CO)C(=O)O)C(C)C
B3: Compound A50 (peptide)
peptide: YSHGTFTSDYSKYLD[Aib]KRAQEFV[Aib]WLEDEKRNKPPPS-OH
modifications: N-terminus assumed
SMILES: CC(C)C[C@H](NC(=O)[C@H](Cc1ccc(O)cc1)NC(=O)[C@H](CCCCN)NC(=O)[C@H](CO)NC(=O)[C@H](Cc1ccc(O)cc1)NC(=O)[C@H](CC(=O)O)NC(=O)[C@H](CO)NC(=O)[C@@H](NC(=O)[C@H](Cc1ccccc1)NC(=O)[C@@H](NC(=O)CNC(=O)[C@H](Cc1c[nH]cn1)NC(=O)[C@H](CO)NC(=O)[C@@H](N)Cc1ccc(O)cc1)[C@@H](C)O)[C@@H](C)O)C(=O)N[C@@H](CC(=O)O)C(=O)NC(C)(C)C(=O)N[C@@H](CCCCN)C(=O)N[C@@H](CCCNC(=N)N)C(=O)N[C@@H](C)C(=O)N[C@@H](CCC(N)=O)C(=O)N[C@@H](CCC(=O)O)C(=O)N[C@@H](Cc1ccccc1)C(=O)N[C@H](C(=O)NC(C)(C)C(=O)N[C@@H](Cc1c[nH]c2ccccc12)C(=O)N[C@@H](CC(C)C)C(=O)N[C@@H](CCC(=O)O)C(=O)N[C@@H](CC(=O)O)C(=O)N[C@@H](CCC(=O)O)C(=O)N[C@@H](CCCCN)C(=O)N[C@@H](CCCNC(=N)N)C(=O)N[C@@H](CC(N)=O)C(=O)N[C@@H](CCCCN)C(=O)N1CCC[C@H]1C(=O)N1CCC[C@H]1C(=O)N1CCC[C@H]1C(=O)N[C@@H](CO)C(=O)O)C(C)C
B4: Compound A51 (peptide)
peptide: YSHGTFTSDYSKYLDLKRAQEFV[Aib]WLEDEPSSGAPPPS-OH
modifications: N-terminus assumed
SMILES: CC(C)C[C@H](NC(=O)[C@H](CC(=O)O)NC(=O)[C@H](CC(C)C)NC(=O)[C@H](Cc1ccc(O)cc1)NC(=O)[C@H](CCCCN)NC(=O)[C@H](CO)NC(=O)[C@H](Cc1ccc(O)cc1)NC(=O)[C@H](CC(=O)O)NC(=O)[C@H](CO)NC(=O)[C@@H](NC(=O)[C@H](Cc1ccccc1)NC(=O)[C@@H](NC(=O)CNC(=O)[C@H](Cc1c[nH]cn1)NC(=O)[C@H](CO)NC(=O)[C@@H](N)Cc1ccc(O)cc1)[C@@H](C)O)[C@@H](C)O)C(=O)N[C@@H](CCCCN)C(=O)N[C@@H](CCCNC(=N)N)C(=O)N[C@@H](C)C(=O)N[C@@H](CCC(N)=O)C(=O)N[C@@H](CCC(=O)O)C(=O)N[C@@H](Cc1ccccc1)C(=O)N[C@H](C(=O)NC(C)(C)C(=O)N[C@@H](Cc1c[nH]c2ccccc12)C(=O)N[C@@H](CC(C)C)C(=O)N[C@@H](CCC(=O)O)C(=O)N[C@@H](CC(=O)O)C(=O)N[C@@H](CCC(=O)O)C(=O)N1CCC[C@H]1C(=O)N[C@@H](CO)C(=O)N[C@@H](CO)C(=O)NCC(=O)N[C@@H](C)C(=O)N1CCC[C@H]1C(=O)N1CCC[C@H]1C(=O)N1CCC[C@H]1C(=O)N[C@@H](CO)C(=O)O)C(C)C
B5: Compound A52 (peptide)
peptide: YSHGTFTSDYSKYLDIKRAQEFV[Aib]WLEDEPSSGAPPPS-OH
modifications: N-terminus assumed
SMILES: CC[C@H](C)[C@H](NC(=O)[C@H](CC(=O)O)NC(=O)[C@H](CC(C)C)NC(=O)[C@H](Cc1ccc(O)cc1)NC(=O)[C@H](CCCCN)NC(=O)[C@H](CO)NC(=O)[C@H](Cc1ccc(O)cc1)NC(=O)[C@H](CC(=O)O)NC(=O)[C@H](CO)NC(=O)[C@@H](NC(=O)[C@H](Cc1ccccc1)NC(=O)[C@@H](NC(=O)CNC(=O)[C@H](Cc1c[nH]cn1)NC(=O)[C@H](CO)NC(=O)[C@@H](N)Cc1ccc(O)cc1)[C@@H](C)O)[C@@H](C)O)C(=O)N[C@@H](CCCCN)C(=O)N[C@@H](CCCNC(=N)N)C(=O)N[C@@H](C)C(=O)N[C@@H](CCC(N)=O)C(=O)N[C@@H](CCC(=O)O)C(=O)N[C@@H](Cc1ccccc1)C(=O)N[C@H](C(=O)NC(C)(C)C(=O)N[C@@H](Cc1c[nH]c2ccccc12)C(=O)N[C@@H](CC(C)C)C(=O)N[C@@H](CCC(=O)O)C(=O)N[C@@H](CC(=O)O)C(=O)N[C@@H](CCC(=O)O)C(=O)N1CCC[C@H]1C(=O)N[C@@H](CO)C(=O)N[C@@H](CO)C(=O)NCC(=O)N[C@@H](C)C(=O)N1CCC[C@H]1C(=O)N1CCC[C@H]1C(=O)N1CCC[C@H]1C(=O)N[C@@H](CO)C(=O)O)C(C)C
B6: Compound A53 (peptide)
peptide: YSHGTFTSDYSKYLD[Aib]KRAQEFVLWLEDEPSSGAPPPS-OH
modifications: N-terminus assumed
SMILES: CC(C)C[C@H](NC(=O)[C@H](Cc1c[nH]c2ccccc12)NC(=O)[C@H](CC(C)C)NC(=O)[C@@H](NC(=O)[C@H](Cc1ccccc1)NC(=O)[C@H](CCC(=O)O)NC(=O)[C@H](CCC(N)=O)NC(=O)[C@H](C)NC(=O)[C@H](CCCNC(=N)N)NC(=O)[C@H](CCCCN)NC(=O)C(C)(C)NC(=O)[C@H](CC(=O)O)NC(=O)[C@H](CC(C)C)NC(=O)[C@H](Cc1ccc(O)cc1)NC(=O)[C@H](CCCCN)NC(=O)[C@H](CO)NC(=O)[C@H](Cc1ccc(O)cc1)NC(=O)[C@H](CC(=O)O)NC(=O)[C@H](CO)NC(=O)[C@@H](NC(=O)[C@H](Cc1ccccc1)NC(=O)[C@@H](NC(=O)CNC(=O)[C@H](Cc1c[nH]cn1)NC(=O)[C@H](CO)NC(=O)[C@@H](N)Cc1ccc(O)cc1)[C@@H](C)O)[C@@H](C)O)C(C)C)C(=O)N[C@@H](CCC(=O)O)C(=O)N[C@@H](CC(=O)O)C(=O)N[C@@H](CCC(=O)O)C(=O)N1CCC[C@H]1C(=O)N[C@@H](CO)C(=O)N[C@@H](CO)C(=O)NCC(=O)N[C@@H](C)C(=O)N1CCC[C@H]1C(=O)N1CCC[C@H]1C(=O)N1CCC[C@H]1C(=O)N[C@@H](CO)C(=O)O
B7: Compound A54 (peptide)
peptide: YSHGTFTSDYSKYLD[Aib]KRAQEFV[Aib]WLEDEPSSKEPPPS-OH
modifications: N-terminus assumed
SMILES: CC(C)C[C@H](NC(=O)[C@H](Cc1ccc(O)cc1)NC(=O)[C@H](CCCCN)NC(=O)[C@H](CO)NC(=O)[C@H](Cc1ccc(O)cc1)NC(=O)[C@H](CC(=O)O)NC(=O)[C@H](CO)NC(=O)[C@@H](NC(=O)[C@H](Cc1ccccc1)NC(=O)[C@@H](NC(=O)CNC(=O)[C@H](Cc1c[nH]cn1)NC(=O)[C@H](CO)NC(=O)[C@@H](N)Cc1ccc(O)cc1)[C@@H](C)O)[C@@H](C)O)C(=O)N[C@@H](CC(=O)O)C(=O)NC(C)(C)C(=O)N[C@@H](CCCCN)C(=O)N[C@@H](CCCNC(=N)N)C(=O)N[C@@H](C)C(=O)N[C@@H](CCC(N)=O)C(=O)N[C@@H](CCC(=O)O)C(=O)N[C@@H](Cc1ccccc1)C(=O)N[C@H](C(=O)NC(C)(C)C(=O)N[C@@H](Cc1c[nH]c2ccccc12)C(=O)N[C@@H](CC(C)C)C(=O)N[C@@H](CCC(=O)O)C(=O)N[C@@H](CC(=O)O)C(=O)N[C@@H](CCC(=O)O)C(=O)N1CCC[C@H]1C(=O)N[C@@H](CO)C(=O)N[C@@H](CO)C(=O)N[C@@H](CCCCN)C(=O)N[C@@H](CCC(=O)O)C(=O)N1CCC[C@H]1C(=O)N1CCC[C@H]1C(=O)N1CCC[C@H]1C(=O)N[C@@H](CO)C(=O)O)C(C)C

Columns and labels:
[1] = target: human glucagon receptor (GCGR) (human, UniProt P47871 26-477); test: cell-based or functional assay
[2] = target: human GLP-1 receptor (GLP-1R) (human, UniProt P43220 24-463); test: cell-based or functional assay
Chain of human GLP-1 receptor (GLP-1R) (P43220 24-463): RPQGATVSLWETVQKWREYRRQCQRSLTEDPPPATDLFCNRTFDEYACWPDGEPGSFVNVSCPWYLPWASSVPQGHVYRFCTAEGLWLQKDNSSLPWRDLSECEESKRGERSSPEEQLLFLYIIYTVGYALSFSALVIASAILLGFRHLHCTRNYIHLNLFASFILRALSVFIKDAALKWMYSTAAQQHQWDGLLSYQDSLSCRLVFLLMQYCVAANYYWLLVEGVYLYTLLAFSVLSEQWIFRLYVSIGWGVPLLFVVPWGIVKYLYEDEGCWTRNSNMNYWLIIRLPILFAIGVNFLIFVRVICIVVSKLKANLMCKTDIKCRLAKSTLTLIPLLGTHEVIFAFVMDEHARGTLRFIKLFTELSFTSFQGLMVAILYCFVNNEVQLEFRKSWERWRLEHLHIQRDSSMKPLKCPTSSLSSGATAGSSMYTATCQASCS

Row | Binder | hGCGR pEC50 (cAMP) [1] | hGLP1 pEC50 (cAMP) [2]
1 | B1 | 12.9 pEC50 | < 9 pEC50
2 | B2 | 12.4 pEC50 | < 9 pEC50
3 | B3 | 11.5 pEC50 | < 9 pEC50
4 | B4 | 12.3 pEC50 | < 9 pEC50
5 | B5 | 12.4 pEC50 | < 9 pEC50
6 | B6 | 11.6 pEC50 | < 9 pEC50
7 | B7 | 12.4 pEC50 | < 9 pEC50
